T1: TWINKLE (UniProt Q96RR1 32-684)
T1 sequence: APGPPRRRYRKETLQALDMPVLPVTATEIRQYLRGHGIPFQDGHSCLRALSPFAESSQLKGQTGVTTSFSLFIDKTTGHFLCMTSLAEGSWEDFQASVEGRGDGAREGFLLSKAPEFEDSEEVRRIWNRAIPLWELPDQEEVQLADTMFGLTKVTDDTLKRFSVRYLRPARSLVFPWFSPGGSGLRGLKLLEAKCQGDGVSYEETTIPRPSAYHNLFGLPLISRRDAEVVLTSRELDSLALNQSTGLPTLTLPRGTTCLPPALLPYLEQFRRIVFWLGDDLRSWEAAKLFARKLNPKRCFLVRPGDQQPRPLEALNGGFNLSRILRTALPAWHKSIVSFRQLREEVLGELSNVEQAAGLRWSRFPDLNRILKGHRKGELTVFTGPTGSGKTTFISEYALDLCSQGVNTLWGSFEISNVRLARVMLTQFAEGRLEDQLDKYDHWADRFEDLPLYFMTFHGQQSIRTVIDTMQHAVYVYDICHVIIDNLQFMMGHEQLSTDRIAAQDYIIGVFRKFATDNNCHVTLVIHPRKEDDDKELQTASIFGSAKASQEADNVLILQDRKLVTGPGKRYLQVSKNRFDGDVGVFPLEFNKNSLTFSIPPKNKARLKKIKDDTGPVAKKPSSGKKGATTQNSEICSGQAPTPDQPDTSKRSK

B1: linear dsDNA (100 bp) (dsDNA)
DNA 1: GATTTTTTTTTTTTTTTTTTTTTTTTTTTTTTTTTTTTTCATACCCCTATGAGGGGTATGTTTTTTTTTTTTTTTTTTTTTTTTTTTTTTTTTTTTTTAT
DNA 2: ATAAAAAAAAAAAAAAAAAAAAAAAAAAAAAAAAAAAAAACATACCCCTCATAGGGGTATGAAAAAAAAAAAAAAAAAAAAAAAAAAAAAAAAAAAAATC
B2: linear ssDNA (100 nt) (ssDNA)
DNA: B1 DNA 1
B3: closed circular ssDNA (100 nt) (ssDNA)
DNA: GAGGGGTATGTTTTTTTTTTTTTTTTTTTTTTTTTTTTTTTTTTTTTTTTTTTTTTTTTTTTTTTTTTTTTTTTTTTTTTTTTTTTTTTTCATACCCCTAT

biological target: T1, TWINKLE; test: EMSA

Binding result, binds:
B1
B2
B3

Reference: publication PMC3241658
